Laboratory results published in paper PMC8706527.

Legend:
[1] = target: recombinant human FcγRIIIa-Phe (human) (UniProt P08637); assay: SPR
[2] = target: recombinant human neonatal Fc receptor (rhFcRn) (human) (UniProt P55899); assay: SPR
recombinant human neonatal Fc receptor (rhFcRn) (human), sequence (P55899 whole entry, looked up, tested part not stated): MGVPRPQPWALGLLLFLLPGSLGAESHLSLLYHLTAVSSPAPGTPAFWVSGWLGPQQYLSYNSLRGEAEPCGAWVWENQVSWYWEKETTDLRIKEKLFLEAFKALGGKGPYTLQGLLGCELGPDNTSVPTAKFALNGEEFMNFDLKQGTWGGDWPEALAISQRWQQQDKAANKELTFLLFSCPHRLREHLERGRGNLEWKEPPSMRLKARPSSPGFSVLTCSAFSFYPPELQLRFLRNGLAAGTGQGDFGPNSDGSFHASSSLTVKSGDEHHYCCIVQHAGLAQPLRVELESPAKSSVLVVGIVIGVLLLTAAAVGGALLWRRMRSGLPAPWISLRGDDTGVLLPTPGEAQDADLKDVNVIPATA

recombinant human FcγRIIIa-Phe (human), sequence (P08637 17-208): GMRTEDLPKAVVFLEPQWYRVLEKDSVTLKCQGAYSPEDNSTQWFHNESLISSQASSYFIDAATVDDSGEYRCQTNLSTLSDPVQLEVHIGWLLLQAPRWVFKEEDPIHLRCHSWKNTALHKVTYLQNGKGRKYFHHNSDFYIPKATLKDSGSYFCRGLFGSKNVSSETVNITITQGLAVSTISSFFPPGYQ

- Kd [1]: 1620 nM
- Kd [2]: 195 nM
- kon [2]: 986000 M⁻¹ s⁻¹
Substance: wild type IgG1 (modified ZRC-3308 mAb with wild type Fc) (antibody)
